Patent US20050282743A1, “Molecular interactions in cells” (Arbor Vita Corporation, priority 2001, published 2005)
Ends that are not written are not given here. * marks the point of attachment. Biotin = O=C1N[C@H]2[C@H](CS[C@H]2CCCCC(=O)*)N1

What was measured:
Assay in all cases: G' assay (10 uM PL peptide), results of TABLE 7 and TABLE 12
Format in all cases: binding
[1] = molecular target: T1, PDZ protein (GST-PDZ fusion) (Homo sapiens, UniProt Q12923); conditions: PDZ PTPL-1, PDZ Domain 4
T1 construct: made in house; host or cells: E. coli (DH5alpha, BL21 or JM109)
From the text: (§1) Each page of TABLE 7 and 12 includes seven columns. The columns in each table are numbered from left to right such that the left-most column in each table is column 1 and the right-most column in each table is column 7. Thus, the first column in each table is labeled “AVC ID”; this column simply lists an internal reference number used to refer to the carboxyl-terminal amino acids of the PL proteins listed in the second column. […] All PL peptides were biotinylated at the amino-terminus and the sequences of these PL peptides are presented in TABLE 8 (see end of specification).
(§2) This column provides the gene name for the PDZ portion of the GST-PDZ fusion that interacts with the PDZ-ligand to the left. For PDZ domain-containing proteins with multiple domains, the domain number is listed to the right of the PDZ (i.e., in column 5 labeled “PDZ Domain”), and indicates the PDZ domain number when numbered from the amino-terminus to the carboxy-terminus.
(§3) The third column labeled “Peptide Optimal Concentration” in the tables is a number reflective of the binding interaction between the PL protein and PDZ protein. […] The column labeled “Protein Optimal Concentration” refers to the protein concentration used to assay PL interaction (in ug/ml); a ‘0’ is indicative of 5 ug/ml protein concentration; any other value represents the concentration (in ug/ml) used to determine the dissociation constant for a given interaction.
(§4) Finally, the seventh column labeled “Classification” is another measure of the level of binding. In particular, it provides an absorbance value at 450 nm which indicates the amount of PL peptide bound to the PDZ protein. The following numerical values have the following meanings: ‘1’—A450 nm 0-1; ‘2’—A450 nm 1-2; ‘3’—A450 nm 2-3; ‘4’—A450 nm 3-4; ‘5’—A450 nm of 4 more than 2× repeated; ‘0’—A450 nm 0, i.e., not found to interact. Thus, higher numbers indicate stronger interactions.
(§5) For convenience, the assay conditions described in this section are referred to as the “G′ assay” and the “G″ assay,” with the specific conditions described in the preceding section on G assays being referred to as the “G^0 assay.” The “G′ assay” is identical to the “G^0 assay” except at step (2) the peptide concentration is 10 uM instead of 20 uM.

[2] = molecular target: T2, PDZ protein (GST-PDZ fusion) (Homo sapiens, UniProt Q6P0Q8)
T2 construct: made in house; host or cells: E. coli (DH5alpha, BL21 or JM109)
T2 sequence (Q6P0Q8 whole entry, the tested form may be a part): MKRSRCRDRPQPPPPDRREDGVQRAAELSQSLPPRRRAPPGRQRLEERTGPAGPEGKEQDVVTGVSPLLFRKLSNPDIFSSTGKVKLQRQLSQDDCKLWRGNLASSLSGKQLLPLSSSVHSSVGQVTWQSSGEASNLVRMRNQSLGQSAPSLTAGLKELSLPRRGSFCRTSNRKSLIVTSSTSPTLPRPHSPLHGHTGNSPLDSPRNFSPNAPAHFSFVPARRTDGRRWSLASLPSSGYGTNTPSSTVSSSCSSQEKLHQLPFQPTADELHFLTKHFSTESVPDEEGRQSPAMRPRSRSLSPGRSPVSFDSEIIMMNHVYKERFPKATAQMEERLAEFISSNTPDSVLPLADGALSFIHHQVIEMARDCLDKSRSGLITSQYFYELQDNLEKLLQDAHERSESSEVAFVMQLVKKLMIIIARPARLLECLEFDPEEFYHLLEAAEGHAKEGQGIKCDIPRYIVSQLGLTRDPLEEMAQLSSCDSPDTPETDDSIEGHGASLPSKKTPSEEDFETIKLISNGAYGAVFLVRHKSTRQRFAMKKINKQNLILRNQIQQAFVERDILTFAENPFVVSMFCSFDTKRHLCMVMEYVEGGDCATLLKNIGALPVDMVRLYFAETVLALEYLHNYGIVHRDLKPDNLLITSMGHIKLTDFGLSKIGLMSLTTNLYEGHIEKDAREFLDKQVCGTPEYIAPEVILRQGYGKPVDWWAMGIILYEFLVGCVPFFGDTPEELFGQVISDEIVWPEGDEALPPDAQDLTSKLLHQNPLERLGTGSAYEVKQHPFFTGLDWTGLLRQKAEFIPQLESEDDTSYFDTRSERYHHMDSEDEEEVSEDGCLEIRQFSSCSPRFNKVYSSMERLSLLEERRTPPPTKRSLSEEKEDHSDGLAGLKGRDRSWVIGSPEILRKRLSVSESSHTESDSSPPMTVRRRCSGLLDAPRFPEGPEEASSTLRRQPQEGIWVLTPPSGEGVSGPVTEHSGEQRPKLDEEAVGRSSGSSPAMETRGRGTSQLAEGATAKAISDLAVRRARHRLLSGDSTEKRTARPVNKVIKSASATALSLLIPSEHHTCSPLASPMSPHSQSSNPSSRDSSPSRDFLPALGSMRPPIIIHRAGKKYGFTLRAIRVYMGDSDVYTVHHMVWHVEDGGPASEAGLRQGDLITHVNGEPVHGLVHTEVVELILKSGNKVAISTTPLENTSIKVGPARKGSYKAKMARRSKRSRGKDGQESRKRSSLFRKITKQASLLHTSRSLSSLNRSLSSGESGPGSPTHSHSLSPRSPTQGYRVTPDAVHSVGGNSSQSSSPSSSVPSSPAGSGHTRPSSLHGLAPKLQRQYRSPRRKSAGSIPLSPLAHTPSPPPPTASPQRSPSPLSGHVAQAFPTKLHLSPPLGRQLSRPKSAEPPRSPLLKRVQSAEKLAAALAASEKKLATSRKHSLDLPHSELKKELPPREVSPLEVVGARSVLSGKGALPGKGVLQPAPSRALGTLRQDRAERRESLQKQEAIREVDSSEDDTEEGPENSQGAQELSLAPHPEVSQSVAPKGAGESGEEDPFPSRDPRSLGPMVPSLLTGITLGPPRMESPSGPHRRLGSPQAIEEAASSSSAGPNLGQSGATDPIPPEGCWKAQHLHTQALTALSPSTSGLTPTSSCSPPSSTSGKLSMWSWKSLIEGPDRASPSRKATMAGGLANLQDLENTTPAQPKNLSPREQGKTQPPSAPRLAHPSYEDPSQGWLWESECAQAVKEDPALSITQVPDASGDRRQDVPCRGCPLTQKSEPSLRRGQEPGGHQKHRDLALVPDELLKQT
From the text: as §1, §2, §3, §4, §5

[3] = molecular target: T3, PDZ protein (GST-PDZ fusion) (Homo sapiens, UniProt O15018); conditions: PDZ AIPC, PDZ Domain 1
T3 construct: made in house; host or cells: E. coli (DH5alpha, BL21 or JM109)
From the text: as §1, §2, §3, §4, §5

[4] = molecular target: T4, PDZ protein (GST-PDZ fusion) (Homo sapiens, UniProt Q8TEW0); conditions: PDZ PAR3, PDZ Domain 3
T4 construct: made in house; host or cells: E. coli (DH5alpha, BL21 or JM109)
T4 sequence (Q8TEW0 whole entry, the tested form may be a part): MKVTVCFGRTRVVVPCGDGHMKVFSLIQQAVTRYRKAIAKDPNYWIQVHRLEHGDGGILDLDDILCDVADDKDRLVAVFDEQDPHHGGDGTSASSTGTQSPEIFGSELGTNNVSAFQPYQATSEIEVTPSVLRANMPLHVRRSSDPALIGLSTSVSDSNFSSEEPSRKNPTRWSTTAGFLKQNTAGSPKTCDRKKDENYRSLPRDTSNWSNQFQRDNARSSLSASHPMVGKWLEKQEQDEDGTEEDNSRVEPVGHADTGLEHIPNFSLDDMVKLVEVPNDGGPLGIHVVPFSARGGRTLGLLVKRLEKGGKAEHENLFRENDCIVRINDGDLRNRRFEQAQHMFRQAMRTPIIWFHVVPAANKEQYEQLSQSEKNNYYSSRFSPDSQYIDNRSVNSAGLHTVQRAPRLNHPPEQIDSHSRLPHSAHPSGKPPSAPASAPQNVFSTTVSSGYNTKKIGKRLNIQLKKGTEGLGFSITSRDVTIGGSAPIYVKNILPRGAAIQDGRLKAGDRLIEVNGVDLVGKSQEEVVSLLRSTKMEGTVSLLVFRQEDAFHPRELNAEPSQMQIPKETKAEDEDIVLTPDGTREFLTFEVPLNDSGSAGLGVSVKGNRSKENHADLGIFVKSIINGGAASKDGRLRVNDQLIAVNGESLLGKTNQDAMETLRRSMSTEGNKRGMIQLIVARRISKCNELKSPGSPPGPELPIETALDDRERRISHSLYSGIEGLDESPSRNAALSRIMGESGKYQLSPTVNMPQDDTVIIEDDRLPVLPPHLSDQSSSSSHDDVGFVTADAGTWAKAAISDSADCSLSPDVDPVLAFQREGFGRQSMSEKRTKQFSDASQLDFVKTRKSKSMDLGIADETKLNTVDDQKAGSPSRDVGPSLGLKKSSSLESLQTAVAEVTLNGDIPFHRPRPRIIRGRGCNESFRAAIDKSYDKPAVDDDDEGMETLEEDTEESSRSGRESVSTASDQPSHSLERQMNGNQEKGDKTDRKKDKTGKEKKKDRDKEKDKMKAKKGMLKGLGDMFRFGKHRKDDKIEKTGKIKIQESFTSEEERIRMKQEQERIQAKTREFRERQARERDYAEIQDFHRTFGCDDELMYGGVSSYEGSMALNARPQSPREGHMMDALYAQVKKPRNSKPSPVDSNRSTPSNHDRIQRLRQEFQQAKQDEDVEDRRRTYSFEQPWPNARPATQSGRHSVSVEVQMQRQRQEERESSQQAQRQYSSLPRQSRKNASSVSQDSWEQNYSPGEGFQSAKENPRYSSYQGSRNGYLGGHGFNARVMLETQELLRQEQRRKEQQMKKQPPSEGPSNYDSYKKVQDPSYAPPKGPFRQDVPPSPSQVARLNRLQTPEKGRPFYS
From the text: as §1, §2, §3, §4, §5

[5] = molecular target: T5, PDZ protein (GST-PDZ fusion) (Homo sapiens, UniProt Q13796); conditions: PDZ hAPXL, PDZ Domain 1
T5 construct: made in house; host or cells: E. coli (DH5alpha, BL21 or JM109)
T5 sequence (Q13796 whole entry, the tested form may be a part): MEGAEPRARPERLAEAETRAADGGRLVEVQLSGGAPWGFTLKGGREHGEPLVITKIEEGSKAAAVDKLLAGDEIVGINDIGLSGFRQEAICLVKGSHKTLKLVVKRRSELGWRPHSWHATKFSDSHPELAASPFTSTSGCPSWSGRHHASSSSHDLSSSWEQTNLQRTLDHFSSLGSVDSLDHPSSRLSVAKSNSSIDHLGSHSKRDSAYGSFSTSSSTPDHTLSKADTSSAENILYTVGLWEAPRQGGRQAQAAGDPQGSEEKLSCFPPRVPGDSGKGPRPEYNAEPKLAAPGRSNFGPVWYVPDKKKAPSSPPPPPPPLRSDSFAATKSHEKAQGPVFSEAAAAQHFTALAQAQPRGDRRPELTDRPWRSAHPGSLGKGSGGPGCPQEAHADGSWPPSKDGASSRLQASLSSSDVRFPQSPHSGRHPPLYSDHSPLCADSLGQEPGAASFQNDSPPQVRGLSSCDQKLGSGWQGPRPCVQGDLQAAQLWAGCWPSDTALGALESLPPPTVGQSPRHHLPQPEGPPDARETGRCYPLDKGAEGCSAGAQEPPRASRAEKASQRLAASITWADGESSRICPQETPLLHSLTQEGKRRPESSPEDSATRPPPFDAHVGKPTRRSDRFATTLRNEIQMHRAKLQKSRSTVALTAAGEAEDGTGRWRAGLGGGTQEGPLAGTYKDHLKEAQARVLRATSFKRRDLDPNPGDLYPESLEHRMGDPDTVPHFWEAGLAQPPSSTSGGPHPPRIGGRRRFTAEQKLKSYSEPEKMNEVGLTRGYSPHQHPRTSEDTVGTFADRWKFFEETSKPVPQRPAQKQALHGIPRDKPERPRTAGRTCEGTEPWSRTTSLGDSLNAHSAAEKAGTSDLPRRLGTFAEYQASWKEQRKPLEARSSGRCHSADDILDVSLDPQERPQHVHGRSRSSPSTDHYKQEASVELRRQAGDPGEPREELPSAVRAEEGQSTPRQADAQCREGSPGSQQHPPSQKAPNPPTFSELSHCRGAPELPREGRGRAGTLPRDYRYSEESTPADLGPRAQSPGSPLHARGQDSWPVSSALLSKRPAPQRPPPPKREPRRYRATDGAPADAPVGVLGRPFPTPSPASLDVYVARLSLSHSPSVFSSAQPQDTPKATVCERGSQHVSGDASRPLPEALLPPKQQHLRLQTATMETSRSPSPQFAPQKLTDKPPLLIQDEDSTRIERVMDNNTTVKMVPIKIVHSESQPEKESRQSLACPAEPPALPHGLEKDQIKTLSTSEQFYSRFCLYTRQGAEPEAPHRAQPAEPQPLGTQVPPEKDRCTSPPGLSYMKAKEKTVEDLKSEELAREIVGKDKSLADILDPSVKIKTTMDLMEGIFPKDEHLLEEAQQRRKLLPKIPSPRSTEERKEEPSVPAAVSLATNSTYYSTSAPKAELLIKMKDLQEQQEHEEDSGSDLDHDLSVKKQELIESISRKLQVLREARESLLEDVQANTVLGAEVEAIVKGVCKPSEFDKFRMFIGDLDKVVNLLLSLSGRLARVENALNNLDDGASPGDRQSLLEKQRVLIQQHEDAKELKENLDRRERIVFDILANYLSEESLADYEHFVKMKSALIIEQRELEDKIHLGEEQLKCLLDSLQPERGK
From the text: as §1, §2, §3, §4, §5

[6] = molecular target: T6, PDZ protein (GST-PDZ fusion) (Homo sapiens, UniProt Q9Y2H9); conditions: PDZ KIAA0973, PDZ Domain 1
T6 construct: made in house; host or cells: E. coli (DH5alpha, BL21 or JM109)
From the text: as §1, §2, §3, §4, §5

[7] = molecular target: T7, PDZ protein (GST-PDZ fusion) (Homo sapiens, UniProt Q9C0E4); conditions: PDZ KIAA1719, PDZ Domain 6
T7 construct: made in house; host or cells: E. coli (DH5alpha, BL21 or JM109)
From the text: as §1, §2, §3, §4, §5

[8] = molecular target: T8, PDZ protein (GST-PDZ fusion) (Homo sapiens, UniProt Q02410); conditions: PDZ Mint 1, PDZ Domain 2
T8 construct: made in house; host or cells: E. coli (DH5alpha, BL21 or JM109)
T8 sequence (Q02410 1-837): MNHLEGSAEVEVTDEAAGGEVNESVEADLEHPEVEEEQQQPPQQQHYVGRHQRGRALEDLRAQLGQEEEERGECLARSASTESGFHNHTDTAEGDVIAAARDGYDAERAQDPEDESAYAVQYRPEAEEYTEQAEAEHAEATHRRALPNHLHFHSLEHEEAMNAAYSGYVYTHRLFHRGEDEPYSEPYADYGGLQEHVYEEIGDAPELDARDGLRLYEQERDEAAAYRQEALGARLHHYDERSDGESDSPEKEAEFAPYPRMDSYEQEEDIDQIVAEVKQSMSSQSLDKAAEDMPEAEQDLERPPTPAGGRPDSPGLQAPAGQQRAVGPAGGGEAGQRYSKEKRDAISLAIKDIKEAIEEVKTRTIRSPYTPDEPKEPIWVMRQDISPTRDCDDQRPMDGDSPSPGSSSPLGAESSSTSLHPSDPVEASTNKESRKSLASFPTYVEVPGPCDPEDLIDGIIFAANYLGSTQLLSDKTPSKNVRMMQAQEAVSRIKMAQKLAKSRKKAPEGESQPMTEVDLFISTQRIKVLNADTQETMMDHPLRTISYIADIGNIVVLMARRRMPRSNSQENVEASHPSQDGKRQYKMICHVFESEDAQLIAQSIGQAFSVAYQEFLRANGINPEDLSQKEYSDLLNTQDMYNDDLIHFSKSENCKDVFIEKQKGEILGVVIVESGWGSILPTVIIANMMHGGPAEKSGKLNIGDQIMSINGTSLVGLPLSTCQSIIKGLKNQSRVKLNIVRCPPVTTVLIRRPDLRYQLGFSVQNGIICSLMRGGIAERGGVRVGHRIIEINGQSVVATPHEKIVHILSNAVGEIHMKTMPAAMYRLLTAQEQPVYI
From the text: as §1, §2, §3, §4, §5

[9] = molecular target: T9, PDZ protein (GST-PDZ fusion) (Homo sapiens, UniProt O75970); conditions: PDZ MUPP-1, PDZ Domain 11
T9 construct: made in house; host or cells: E. coli (DH5alpha, BL21 or JM109)
From the text: as §1, §2, §3, §4, §5

[10] = molecular target: T10, PDZ protein (GST-PDZ fusion) (Homo sapiens, UniProt Q9NZN5); conditions: PDZ KIAA0382, PDZ Domain 1
T10 construct: made in house; host or cells: E. coli (DH5alpha, BL21 or JM109)
From the text: as §1, §2, §3, §4, §5

[11] = molecular target: T11, PDZ protein (GST-PDZ fusion) (Homo sapiens, UniProt Q5TCQ9); conditions: PDZ KIAA1634, PDZ Domain 1
T11 construct: made in house; host or cells: E. coli (DH5alpha, BL21 or JM109)
T11 sequence (Q5TCQ9 1-1481): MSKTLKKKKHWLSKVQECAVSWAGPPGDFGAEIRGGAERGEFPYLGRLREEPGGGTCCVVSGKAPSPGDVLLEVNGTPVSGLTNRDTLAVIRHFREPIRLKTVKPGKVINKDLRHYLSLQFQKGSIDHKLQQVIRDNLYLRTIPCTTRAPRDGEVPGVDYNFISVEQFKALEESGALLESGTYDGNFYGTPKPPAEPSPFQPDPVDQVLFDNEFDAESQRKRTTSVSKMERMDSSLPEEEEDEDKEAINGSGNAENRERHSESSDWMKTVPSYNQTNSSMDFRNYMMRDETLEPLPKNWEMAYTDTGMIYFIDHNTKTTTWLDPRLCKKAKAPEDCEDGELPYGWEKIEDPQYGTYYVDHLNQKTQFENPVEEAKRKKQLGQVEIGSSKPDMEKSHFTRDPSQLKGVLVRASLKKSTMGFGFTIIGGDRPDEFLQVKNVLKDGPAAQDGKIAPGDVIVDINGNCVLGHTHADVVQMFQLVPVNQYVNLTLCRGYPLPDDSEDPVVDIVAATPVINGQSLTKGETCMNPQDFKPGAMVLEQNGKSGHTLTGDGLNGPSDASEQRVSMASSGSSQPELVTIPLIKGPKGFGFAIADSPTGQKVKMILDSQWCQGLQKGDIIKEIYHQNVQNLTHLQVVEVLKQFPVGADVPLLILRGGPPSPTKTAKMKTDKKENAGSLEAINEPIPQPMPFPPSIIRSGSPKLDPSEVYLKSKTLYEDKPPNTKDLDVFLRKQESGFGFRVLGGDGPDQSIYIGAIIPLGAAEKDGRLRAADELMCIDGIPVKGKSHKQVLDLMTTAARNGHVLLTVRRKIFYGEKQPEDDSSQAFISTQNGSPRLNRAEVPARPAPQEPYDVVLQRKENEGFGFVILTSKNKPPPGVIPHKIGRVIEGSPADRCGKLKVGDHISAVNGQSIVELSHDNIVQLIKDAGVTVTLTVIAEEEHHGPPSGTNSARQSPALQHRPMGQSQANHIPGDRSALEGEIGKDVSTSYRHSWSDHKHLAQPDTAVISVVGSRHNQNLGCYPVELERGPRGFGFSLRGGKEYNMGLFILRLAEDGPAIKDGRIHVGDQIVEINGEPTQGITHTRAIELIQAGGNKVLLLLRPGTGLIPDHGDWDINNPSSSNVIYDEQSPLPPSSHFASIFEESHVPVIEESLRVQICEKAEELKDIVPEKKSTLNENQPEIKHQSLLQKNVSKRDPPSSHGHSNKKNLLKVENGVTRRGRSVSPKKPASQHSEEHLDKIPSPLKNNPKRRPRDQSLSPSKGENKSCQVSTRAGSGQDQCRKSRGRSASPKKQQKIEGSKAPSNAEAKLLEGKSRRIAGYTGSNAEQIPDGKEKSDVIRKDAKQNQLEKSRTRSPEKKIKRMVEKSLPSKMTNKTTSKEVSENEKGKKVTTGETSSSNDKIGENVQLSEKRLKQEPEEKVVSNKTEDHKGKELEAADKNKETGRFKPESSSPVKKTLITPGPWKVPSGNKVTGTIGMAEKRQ
From the text: as §1, §2, §3, §4, §5

[12] = molecular target: T12, PDZ protein (GST-PDZ fusion) (Homo sapiens, UniProt Q12959); conditions: PDZ DLG1, PDZ Domain 2
T12 construct: made in house; host or cells: E. coli (DH5alpha, BL21 or JM109)
From the text: as §1, §2, §3, §4, §5

Classification [4]	Classification [7]	Substance	Classification ([2]; PDZ KIAA0807(S), PDZ Domain 1)	Classification [5]	further results
		NSYVRDDAIFIKAIVDLTGL (Biotin-NSYVRDDAIFIKAIVDLTGL) [TRAF2]	4 (A450 nm 3-4)		Classification ([2]; PDZ KIAA807): 2 (A450 nm 1-2); Classification [6]: 1 (A450 nm 0-1)
1 (A450 nm 0-1)		PTR2_HUMAN (Biotin-RPMESNPDTEGAQGETEDVL)		1 (A450 nm 0-1)	
2 (A450 nm 1-2)	1 (A450 nm 0-1)	QGDPALQDAGDSSRKEYFI (Biotin-QGDPALQDAGDSSRKEYFI) [Glycophorin C]			
	1 (A450 nm 0-1)	RIAYSLLGLKDQVNTVGIPI (Biotin-RIAYSLLGLKDQVNTVGIPI) [ephrin A2]			Classification [8]: 1 (A450 nm 0-1); Classification [9]: 1 (A450 nm 0-1); Classification [10]: 1 (A450 nm 0-1)
2 (A450 nm 1-2)		VDPNSPAAKKKYVSYNNLVI [GLUR7 (metabotropic glutamate receptor)]			Classification [11]: 1 (A450 nm 0-1); Classification [12]: 1 (A450 nm 0-1)

Substance	Classification [4]	Classification [7]	Classification ([2]; PDZ KIAA0807(S), PDZ Domain 1)	Classification [5]	further results
LLNVLQRQELGDGLDDEIAV (Biotin-LLNVLQRQELGDGLDDEIAV)	1 (A450 nm 0-1)		1 (A450 nm 0-1)	1 (A450 nm 0-1)	Classification [1]: 1 (A450 nm 0-1); Classification ([2]; PDZ KIAA807, PDZ Domain not given): 1 (A450 nm 0-1); Classification [3]: 1 (A450 nm 0-1)
